In paper PMC10040874, “Burst kinetics and CNNM binding are evolutionarily conserved properties of phosphatases of regenerating liver” (The Journal of Biological Chemistry, 2023):

B1: Drosophila melanogaster PRL (wild-type) (enzyme, D. melanogaster, UniProt O61722 1-176, looked up)
chain: MSITMRQKDLRPAPALIEYKGMKFLITDRPSDITINHYIMELKKNNVNTVVRVCEPSYNTDELETQGITVKDLAFEDGTFPPQQVVDEWFEVLKDKYQQNPEACVAVHCVAGLGRAPVLVALALIELGLKYEAAVEMIRDKRRGAINAKQLSFLEKYKPKARLKHKNGHKNSCSVQ
notes: the single PRL of D. melanogaster, cloned without the C-terminal prenylation site; also called Drosophila PRL; fly PRL; source: E. coli BL21(DE3), purified (TALON Co2+ resin, Superdex-75)
B2: Drosophila melanogaster CNNM CBS-pair domain, GST-tagged (domain or fragment, D. melanogaster)
chain: VNIISGALELRKKTVADVMTHINDAFMLSLDALLDFETVSEIMNSGYSRIPVYDGDRKNIVTLLYIKDLAFVDTDDNTPLKTLCEFYQNPVHFVFEDYTLDIMFNQFKEGTIGHIAFVHRVNNEGDGDPFYETVGLVTLEDVIEELIQAEIVDE
notes: CBS-pair domain of the Drosophila CNNM protein encoded by the uex (unextended) gene; also called Drosophila CNNM; dCNNM; source: E. coli BL21(DE3), purified (glutathione-Sepharose, Superdex-75); not shown: GST, N-terminal, kept

Tests used:
Assay in all cases: ITC; VP-ITC, 20 °C, 20 mM Hepes pH 7.5, 100 mM NaCl, 5 mM TCEP; GST-CBS-pairs titrated with PRL; single site-binding model
Conditions in all cases: both partners purified
[1] = target: B2
[2] = target: B1
[3] = target: T1, Caenorhabditis elegans PRL (C. elegans)
T1 construct: the single PRL of C. elegans, cloned without the C-terminal prenylation site; also called C. elegans PRL; source: E. coli BL21(DE3), purified (TALON Co2+ resin, Superdex-75)

human PRL2 = target: T2, human PRL2 (human, UniProt Q12974 1-163)
T2 construct: human phosphatase of regenerating liver 2 (PRL2); also called hPRL2; source: E. coli BL21(DE3), purified (TALON Co2+ resin, Superdex-75)
T2 sequence: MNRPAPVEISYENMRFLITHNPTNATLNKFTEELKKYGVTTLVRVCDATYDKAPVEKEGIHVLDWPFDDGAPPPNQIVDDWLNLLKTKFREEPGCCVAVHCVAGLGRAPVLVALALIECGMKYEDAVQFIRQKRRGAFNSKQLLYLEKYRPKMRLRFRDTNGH

B1
fold weaker affinity than the human complex [1]: 20 fold

B2
Kd [2]: 350 nM

B3: CBS-pair domain of a C. elegans CNNM protein (the one of two expressed that bound with 1 μM affinity) (domain or fragment)
chain: LKIAVGAMEIADKVVKDVMTKIEDVFMLPDTTVLNAKTVMEIVKMGYTRIPVYQYGDKNNVTDMLFVKDLALLDPDDNFTVKTVCGYHKHPVKFVMNDTPLPNLLEAFKKGEGHLAMVKRLINTDDKHDPSYVLVGVVTLEDIVEEILQAEINDE
modifications: Table S2: only CNNM1 (376-530) and CNNM3 (375-527) gave protein; assigning the 1 uM binder to CNNM1 is inferred from listing order (Figure 4 not in text)
Kd [3]: 1000 nM

B4: CBS-pair domain of a C. elegans CNNM protein (the one of two expressed that bound with 13 μM affinity) (domain or fragment)
chain: FKMVLGALELYDKTVAHAMTRYEDIFMLPHTLTLGAGMVTQILDMGYTRIPIYENDRKNIVALLFVKDLALLDPDDNHNVMKIASIYNHEVRRVLVDMPLRNMLEEFKRGEYHMALVERLVEQEDKDPIYELCGLITLEDIIEEIIQCEIIDE
modifications: Assigning the 13 uM binder to CNNM3 is inferred from listing order (Figure 4 not in text)
Kd [3]: 13000 nM

B5: human CNNM3 CBS-pair domain (domain or fragment)
chain: LRCRTVEDVLTPLEDCFMLDASTVLDFGVLASIMQSGHTRIPVYEEERSNIVDMLYLKDLAFVDPEDCTPLSTITRFYNHPLHFVFNDTKLDAVLEEFKRGKSHLAIVQKVNNEGEGDPFYEVLGLVTLEDVIEEIIRSEILDE
notes: CBS-pair domain of human CNNM3; the ITC methods call all the titrated domains GST-CBS-pairs, the human one included; also called hCNNM3; GST-CBS-pair; source: E. coli BL21(DE3), purified; not shown: GST, N-terminal, kept
binding result (human PRL2): binds
